The text below walks through data of the supplement of paper PMC7877785.

The nature of this data set: self-splicing fitness, log relative to wild type (ln ratio); higher = more splicing; Tetrahymena group I intron in knt gene, E. coli kanamycin selection, DiMSum; sequences stand for … in CUCUCU…GGAGGGAAAAGUUAUCAGGCAUGCACCUGGUAGCUAGUCUUUAAACCAAUAGAUUGCAUCGGUUUAAAAGGCAAGACCGUCAAAUUGCGGGAAAGGGGUCAACAGCCGUUCAGUACCAAGUCUCAGGGGAAACUUUGAGAUGGCCUUGCAAAGGGUAUGGUAAUAAGCUGACGGACAUGGUCCUAACCACGCAGCCAAGUCCUAAGUCAACAGAUCUUCUGUUGAUAUGGAUGCAGUUCACAGACUAAAUGUCGGUCGGGGAAGAUGUAUUCUUCUCAUAAGAUAUAGUCGGACCUCUCCUUAAUGGGAGCUAGCGGAUGAAGUGAUGCAACACUGGAGCCGCUGGGAACUAAUUUGUAUGCGAAAGUAUAUUGAUUAGUUUUGGAGUACUCGUGGUCG
In outline:
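Fitness was computed with DiMSum as the error-weighted combination of replicate fold changes, kanamycin versus none, each normalised to wild type. The library randomised all eight intron nucleotides of the P1ex region, with the intron placed in the knt kanamycin-resistance gene on pET-22b(+) in E. coli BL21(DE3). Six replicate transformations were grown overnight at 37°C or 30°C on LB agar with or without 25 μg/mL kanamycin, plus 100 μg/mL carbenicillin, 50 μM IPTG and 0.2% rhamnose. Pooled colonies were amplicon-sequenced on an Illumina HiSeq 2500.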

± gives the uncertainty stated by the source.

For the sequence GGAUAGCAAUAUUACGGGAG, the “self-splicing fitness (ln)” value (37 °C) is -2.52 ± 0.21.

As to GGAUAGCAAUAUUACGGGCU, the “self-splicing fitness (ln)” value runs as follows: (30 °C) -2.29 ± 0.14; (37 °C) -0.442 ± 0.12. Take GGAUAGCAAUAUUACGGUGC: the “self-splicing fitness (ln)” value is -1.85 ± 0.48 (30 °C) and -2.5 ± 0.49 (37 °C). Regarding GGAUAGCAAUAUUACGUUAA, the “self-splicing fitness (ln)” value (30 °C) was -2.35 ± 0.16 and the “self-splicing fitness (ln)” value (37 °C) was -1.9 ± 0.16. GGCAAGCAAUAUUACGAAAA: the “self-splicing fitness (ln)” value by setting is: (30 °C) -0.934 ± 0.1; (37 °C) -1.41 ± 0.15. The matching figures for GGCAAGCAAUAUUACGAACA: -2.07 ± 0.24 and -0.92 ± 0.18. For the sequence GGCAAGCAAUAUUACGAAGC, the “self-splicing fitness (ln)” value runs as follows: (30 °C) -1.69 ± 0.27; (37 °C) -0.628 ± 0.47.

Regarding GGCAAGCAAUAUUACGAAGU, the “self-splicing fitness (ln)” value reads like this: (30 °C) -1.94 ± 0.093; (37 °C) -1.89 ± 0.12. In the case of GGCAAGCAAUAUUACGAAUG, the “self-splicing fitness (ln)” value is -2.14 ± 0.15 (30 °C) and -1.45 ± 0.16 (37 °C). On to GGCAAGCAAUAUUACGACAC, for which the “self-splicing fitness (ln)” value runs as follows: (30 °C) -0.649 ± 0.15; (37 °C) 0.129 ± 0.28. As for GGCAAGCAAUAUUACGACGU, the “self-splicing fitness (ln)” value (30 °C) is -0.0263 ± 0.086 and the “self-splicing fitness (ln)” value (37 °C) is 0.872 ± 0.12. Take GGCAAGCAAUAUUACGAUAA: the “self-splicing fitness (ln)” value is -1.23 ± 0.11 (30 °C) and 0.298 ± 0.13 (37 °C). In the case of GGCAAGCAAUAUUACGAUAC, the “self-splicing fitness (ln)” value reads like this: (30 °C) -0.974 ± 0.076; (37 °C) -0.363 ± 0.087. In the case of GGCAAGCAAUAUUACGAUUU, the “self-splicing fitness (ln)” value (30 °C) was -0.299 ± 0.058 and the “self-splicing fitness (ln)” value (37 °C) is 0.164 ± 0.077. For GGCAAGCAAUAUUACGCCAG, the “self-splicing fitness (ln)” value (37 °C) is -2.52 ± 0.41. With GGCAAGCAAUAUUACGCCGU, the “self-splicing fitness (ln)” value was -2.44 ± 0.34 (30 °C) and -0.00259 ± 0.29 (37 °C). For GGCAAGCAAUAUUACGCGAG, the “self-splicing fitness (ln)” value is, setting by setting: (30 °C) -2.32 ± 0.14; (37 °C) -3.34 ± 0.24. For the sequence GGCAAGCAAUAUUACGCGCU, the “self-splicing fitness (ln)” value (30 °C) was -3.35 ± 0.42 and the “self-splicing fitness (ln)” value (37 °C) was -3.25 ± 0.43.

On to GGCAAGCAAUAUUACGCGGU, for which the “self-splicing fitness (ln)” value reads like this: (30 °C) -2.97 ± 0.14; (37 °C) -1.37 ± 0.12. For GGCAAGCAAUAUUACGCGUU, in that order: -0.907 ± 0.075 and -0.815 ± 0.1. In the case of GGCAAGCAAUAUUACGCUGC, where the note is “30 °C”, the “self-splicing fitness (ln)” value was -3.37 ± 0.27.

For the sequence GGCAAGCAAUAUUACGGAGG, the “self-splicing fitness (ln)” value is -4.1 ± 0.18 (30 °C) and -2.87 ± 0.16 (37 °C).

As to GGCAAGCAAUAUUACGGAUA, the “self-splicing fitness (ln)” value by setting is: (30 °C) -0.889 ± 0.1; (37 °C) -0.586 ± 0.097. For GGCAAGCAAUAUUACGGAUC, in that order: -0.625 ± 0.096 and -0.11 ± 0.099. GGCAAGCAAUAUUACGGCGG: the “self-splicing fitness (ln)” value by setting is: (30 °C) -2.44 ± 0.19; (37 °C) -1.13 ± 0.2. On to GGCAAGCAAUAUUACGGGAC, for which the “self-splicing fitness (ln)” value is -2.46 ± 0.13 (30 °C) and -0.918 ± 0.1 (37 °C).

Turning to GGCAAGCAAUAUUACGGUCU, the “self-splicing fitness (ln)” value was -0.851 ± 0.093 (30 °C) and -0.575 ± 0.1 (37 °C). Take GGCAAGCAAUAUUACGUAAG: the “self-splicing fitness (ln)” value (30 °C) was -0.742 ± 0.072 and the “self-splicing fitness (ln)” value (37 °C) is -1 ± 0.1.

Turning to GGCAAGCAAUAUUACGUAUA, the “self-splicing fitness (ln)” value (30 °C) is -1.02 ± 0.066 and the “self-splicing fitness (ln)” value (37 °C) was -0.515 ± 0.07. For GGCAAGCAAUAUUACGUCCC, the “self-splicing fitness (ln)” value (37 °C) is -0.249 ± 0.28. With GGCAAGCAAUAUUACGUGGC, the “self-splicing fitness (ln)” value is -3.53 ± 0.34 (30 °C) and -1.28 ± 0.19 (37 °C).

With GGCAAGCAAUAUUACGUGGG, the “self-splicing fitness (ln)” value was -3.42 ± 0.13 (30 °C) and -1.85 ± 0.1 (37 °C).

As to GGCAAGCAAUAUUACGUUAC, the “self-splicing fitness (ln)” value reads like this: (30 °C) -1.39 ± 0.12; (37 °C) -1.5 ± 0.14. Take GGCCAGCAAUAUUACGAAGC: the “self-splicing fitness (ln)” value (30 °C) was -2 ± 0.11 and the “self-splicing fitness (ln)” value (37 °C) is 0.134 ± 0.13. For GGCCAGCAAUAUUACGACAU, the “self-splicing fitness (ln)” value is -1.21 ± 0.013 (30 °C) and -0.437 ± 0.032 (37 °C). For the sequence GGCCAGCAAUAUUACGAGCU, the “self-splicing fitness (ln)” value (30 °C) was -2.58 ± 0.4.

On to GGCCAGCAAUAUUACGAUCG, for which the “self-splicing fitness (ln)” value is -3.35 ± 0.3 (30 °C) and -1.27 ± 0.15 (37 °C). GGCCAGCAAUAUUACGCAAC: the “self-splicing fitness (ln)” value runs as follows: (30 °C) -1.19 ± 0.1; (37 °C) -0.97 ± 0.12. In the case of GGCCAGCAAUAUUACGCAGC, the “self-splicing fitness (ln)” value (30 °C) was -3.08 ± 0.37 and the “self-splicing fitness (ln)” value (37 °C) was -1.88 ± 0.33.
